In the nanobody polyreactivity screen of Harvey et al. (2022):

Test: yeast display, Sf9 membrane polyspecificity reagent, FACS + sequencing; frameworks hold sequencing errors
Method in brief: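 Polyreactivity labels are assigned by the sorting gate from which each nanobody was recovered. The gates were low and high (top ~1%), set on anti-HA fluorescence for expression and streptavidin fluorescence for reagent binding. Before sorting, galactose-induced (36–48 hours) yeast display cells were stained for 1 hour at 4 °C with 10% biotinylated, detergent-solubilized Sf9 membrane reagent.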

Sequence | polyreactivity (PSR sort gate)
QVQLVESGGGLGQAGGSLRLSCAASGFIFGPYAMGWYRQARGKETELVAAISSSGGSTSYADSVKGRFTISRDNAKNTVYLQMNSLKPEDTAVYYCAARGRYRFYSNNYDYWGQGTQVTVSS | high polyreactivity
QVQLVESGGGLGQAGGSLRLSCAASGGTFYYYAMGWSRQAPGKERELVAAITESGGSTYYGDSVKGRFTISRDNAKNTVNLQMNSLKPEDTAVYYCAAETYYGDDGYWGQGTQVTVSS | low polyreactivity
QVQLVESGGGLGQAGGSLRLSCAASGIIFYPNAMGWYRQAPGKERELVAAISCRSGSTYYADSVKGRITISRDNEKNTVYLQMNSLKPEDTSVYYCAADRRRSYIWRYDYWGQGTQVTVSS | low polyreactivity
QVQLVESGGGLGQAGGSLRLSCAASGITYDGYAMGWYRQAPGKERELVAAITYSGGRTYYADSVKGRFTISRDNAKNTVYLQMNSLKPEDTAVYYCAVVSRRLYEYDYWGQGTQVTVSS | high polyreactivity
QVQLVESGGGLGQAGGSLRLSCAASGNTFYWNAMGWYRQAPGKERELVAAISTTGVSSYYADSVKGRFTISRDNAKNSVYLQMNSLKPEDTAVYYCAGEIIGYHTIYDYWGQGTQVTVSS | low polyreactivity
QVQLVESGGGLGQAGGSLRLSCAASGSTFQIYAMGWYREAPGKEWEFVAAITSSSSTNYADSVKGRFTISRDNAKNTVYLQMNSLKPEDTAVYYCAADVSWRSNWYDYWGQGTQVTVSS | low polyreactivity
QVQLVESGGGLGQAGGSLRLSCAASGYTFRNYVMGWYRPAPGKERQLVATISRGGRTNYADSVKGRFTISRDNAKNTVYLQMNSLKPEDTAVYYCNADWSRVPYRYDYWGQGTQVTVSS | high polyreactivity
QVQLVESGGGLGQAGGSLRLSSAASGRTVSTNDMGWYRHAPGKERELVAAIDFDSDSTYYADSVKGRFTISRDNAKNTVYLQMHSLKPEDTAVYYCAAQYFSYGESYEYWGQGTHVTVSS | low polyreactivity
QVQLVESGGGLGQAGGSLRLSSAASGSIFWFYAMGWYRQAPGKERELVAAITSSGGTDYADSVKGRFSISRDNAKNTVYLQMNSLKPEDSAVYYCAADRIGGPGSYLYDYWGQGTQVTVSS | low polyreactivity
QVQLVESGGGLHQAGGSLRLSCAASGSISGYNPMGWYRQAPGKESELVAVNTTDGSTNYADSVKGRFTISRDNAKNTVYLQMNSLKPEDTAVYYCNTHDGWRLLWEYDYWGQGTQVTVSS | low polyreactivity
QVQLVESGGGLLQAGGRLRLSCAASGFTSTRYAMGWYRQAPGKERELVAAISYGGGDTYYADSVKGRFTISRDNAKNTVYIQMNSMKPEDTAVYYCSSRLRSRNTRLYHWGQGTQGTVSS | high polyreactivity
QVQLVESGGGLLQAGGSLRISCAASGRIFYAKAMGRYRQAPGKERELVAGISSGGITNYADSVKGRFTISRDNAKNTVYLQMNSLKPEDTAVYYCAVESWNRWRNRNDYWGQGTQVSVSS | low polyreactivity
QVQLVESGGGLLQAGGSLRLICAASGRIFTYNAMGWYRQAPGKERELVAAISRRGGTTYYADSVKGRFTISRDNAKNTVYLQMNSLKPEDTAVYYCAALLYYATDDDYWGQGTQVTVSS | high polyreactivity
QVQLVESGGGLLQAGGSLRLSCAASGFIFGGNAMGWYREAPGKERELVAAIRSGGSTYYADSVKVRFTISRDNAKNTVYLQMISLKPLDTAVDYCAVRLRYAYRARGNYWGQGTQVTVSS | low polyreactivity
QVQLVESGGGLLQAGGSLRLSCAASGFIFYDYAMGWYRQAPGKERELVAAITKPGGSTYYADSEKGRFTISRDNAKNTVYLQMNSLKPEDTAGYYCAADVMYYHKLTYGYDYWGQGTQVTVSS | high polyreactivity
QVQLVESGGGLLQAGGSLRLSCAASGFSFLCYAMGWYRQEPRKERELVASITYGGDSTYYADSVKGRFTISRDNAKNTVYLQMNSLKPEDTAGYYCNARPSYWWGGRLYGYWGQGTQVTVSS | high polyreactivity
QVQLVESGGGLLQAGGSLRLSCAASGGIIYYNAMGWSRQAPGKERELVAAIRYRGGSTYYADSVKGRFTISRDNEKNTVYLQMNSLKPEYTAVYYCAVDNLRRGLSLYDTLDYWGQGTQVTVSS | low polyreactivity
QVQLVESGGGLLQAGGSLRLSCAASGGIKSENAMGWYRQAPRKERELVAVITDGGSTNYADSVKGRFTISRDNAKNTVYLQMNSLKPEDTAVYYCAKDTYLELWLDPLYDYWGQGTQVTVSS | low polyreactivity
QVQLVESGGGLLQAGGSLRLSCAASGIIIVGYAMGWYRQAPGKERELVAAISRSSGSTYYADSVKGRFTISRDNAKNTVYLQMNSLKPEDTAVYYCARYNQYYSTEDYWGQGPQVTVSS | high polyreactivity
QVQLVESGGGLLQAGGSLRLSCAASGITFYLYAMGWYRQAPGKVRELVAAITKSGASTYYADSVKGRFTISRDNAKNTVYLQMNSLKPEDTAVYYCAAVLQSGYGYEYWGQGTQVTVSS | high polyreactivity
QVQLVESGGGLLQAGGSLRLSCAASGLIFQNYAMGSYRQAPGKEREFVATITSSGTSTYYADSVKGRFTISRDNAKNTVYLQMNSLKPEDTAVYYCAATGYWWEYDYWGQGTQVTVSS | high polyreactivity
QVQLVESGGGLLQAGGSLRLSCAASGLIFYDNMGWYRQAPGKERELVAAISSTGGSTSYADSVKGRFTISRDNAKNTVYLLMNSLKPEDTAVYYCAADSYPAYLGFVGFDYWGQGTQLTVSS | low polyreactivity

Sequence | polyreactivity (PSR sort gate)
QVQLVESGGGLLQAGGSLRLSCAASGNTFVKYTMGWYRQAPGKERELVAAITWSGGSTSYADSVKGRFTISRDNAKNTVYLQMNSLKPEDTAVYYCAAAWSHSRWDTHDYWGQGTQVTVSS | low polyreactivity
QVQLVESGGGLLQAGGSLRLSCAASGRTFATYAMGWYRQAPGKERELVAAITSGGSTNYADSVKGRFTISRDNAKNTVYLQMNSLKPEDTAVYYCNAYKTNRGSGPWYTGRYDYWGQGTQVTVSS | low polyreactivity
QVQLVESGGGLLQAGGSLRLSCAASGRTFGSYAKGWYRQAPGKERELVAGIRSDDITHYADSVKGRFTISRDNAKNTVYLQMNSLKPEDTAVYYCAKDYKCIATEGAFDYWGQGTQVTVSS | low polyreactivity
QVQLVESGGGLLQAGGSLRLSCAASGRTFNKYAMGWYRKAPGIVRELVAAINYSGGRTYYADSVKGRFTISRDNAKNSVYLEMNSLKPEDTAVFYCAATPTFFVWQGYNYWGQGTQVTVSS | low polyreactivity
QVQLVESGGGLLQAGGSLRLSCAASGRTFTNSAMGWYRQEPGKERELVAGISSSGGRTYYAVSVKGRFTISRDNAMNTVYLQMNSLKAEDTAVYYCAAQHSRVYRRMDYWGQGTQVSVSS | high polyreactivity
QVQLVESGGGLLQAGGSLRLSCAASGRTLGIYAMGWYRQAPWKERELVAAITLSGSDTYYADSVKGRFTISRDNAKNTVYLQMNSLKPEDTAVYDCAAKTYGGYGKYGYWGQGTQVTVSS | low polyreactivity
QVQLVESGGGLLQAGGSLRLSCAASGSTFNKYTMGWYIKAPGKERELVAAITSGDSTYYADSVKGRFTISRDNAKYTVYLQMNSLKTEDTAVYYCAKSLRAYRHVIYGKPFYSWGQGTQVTVSS | low polyreactivity
QVQLVESGGGLLQAGGSLRLSCAASGSTFYDNAMGWYRQAPGKERELVAAISYSGASTYYADSVKGRFTISRDNEKNTVYLQMNSLKPEDTAVYYCAKTFYSLYWGQGTQVTGSS | low polyreactivity
QVQLVESGGGLLQAGGSLRLSCAASGSTFYKYAMGWYRHAPRKERELVASISRSGRSTYYADSVKGRFTISRDNAKNTVYLQMNSLKPEDTAVYYCAATWRQHPGSMGYWGQGTQVTVSS | high polyreactivity
QVQLVESGGGLLQAGGSLRLSCAASGSTYIGNAMGWYRQAPGKERELVAAITSGGSTNYADSVKGRFTISRDNAKNTVYLQKNSLKPEDTAVYYCAKPSRWGWTGFYAYDYWGQGTQVTVSS | low polyreactivity
QVQLVESGGGLLQAGGSLRLSCASSGRTFARYVMGWYRQAPGKERELVAAITRSGGSTYYADSVKGRFTISRDNAKNTVYLQMNSMKPEDTAVYYCAATLRWGLYNTFYSTFNVSYYYWGQGTQVTVSS | high polyreactivity
QVQLVESGGGLLQAGGSLRLSFAASGFTFGRYAMGWYRQAPGKERELVAAISTSGGRTYYADSVKGRFTISRDNAKNTVYLQMNSLKPEDTAVYYCAAEQRRFTGYDYWGQGTQVTVSS | high polyreactivity
QVQLVESGGGLLQAGGSLRVSCAASGSIIFFYAMGWYRQAPGKERELVAAISKSPSSTYYADSVKGRFTISRDNAKNTVYLQMNSLKPEDTAVYYCNTGYSGIQYYYWGQGTQVTVSS | low polyreactivity
QVQLVESGGGLLQAGGSLSLSCAASGFTFIGYAMGWYRQATGKEREFVAAISWSGGRTYYADSVKGRFTISRDNAKNTVYLQMNSLKPEDTAVYYCAARGSRKPDWGLGYWGQGTQVTVSS | high polyreactivity
QVQLVESGGGLLQAGGSLSLSCAASGFTFNRNAMGWYRQAPGKERELVAAISWSGGSTYYADSVKGRFTISRDNAKNTVYLQMNSLKPEDTAVYYCAKGYRRVYSMDWGQGTQVTVSS | low polyreactivity
QVQLVESGGGLLQAGGSQSLSCAASGIISFSNTMGWYIQAPGKERELVAAIDSGGDDTYYADSVKGRFTISRDNAKNSVYLQMNCLKAEDSAVDYCAKDAFFTEIAIRDQIISHHYYWGHGTQVTVSS | low polyreactivity
QVQLVESGGGLLQAGVTLRLSCAPSGFTQDSYSMGWYRQAPGKERELVARIRWSGGSTYYADSVKGRFTISRDNAKNTVYLQMNSLKPEDKAVYYCAADRPYYFLPYSTYTNYDSWGQGTQVTVSS | low polyreactivity
QVQLVESGGGLVEAGGSHRLTCAASGSTFGWYPIGWYRQAPGTERELVAGINSRGGSTYYADSVKGRFTISRDNAQNTVYLQMNSLKPEDTAVYYCNTVWASRRAHDYWGQGTQVTVSS | high polyreactivity
QVQLVESGGGLVEAGGSLRLRCAASGISYRYYAMGWYRQAPGKERELVAAITYRGGTTYYADSVKGRFKISRDKEKNTVYLQMNSLKPEDTAVYYCATDVNSYGYYYWGQGTQVTVSS | high polyreactivity
QVQLVESGGGLVEAGGSLRLSCAASASISGRYAMGSYRQAPGKERELVAAISWIGGSTYYADSVKGRFTISRDNAKNTVYLQMNSLKPEDTAVYYCNVTIDTRTHPLLVVFYGYDYWGQGTQVTVSS | low polyreactivity
QVQLVESGGGLVEAGGSLRLSCAASGGIFPVNAIGWYRQAPGKERELVATITYDGANTYYADSVKGRFTISRDNAKNTVYLQMNRLKPEDTAVYYCAKDRLSFYGYISYIGYGYDYWGQGTQVTVSS | low polyreactivity
